B1: FAM98B (parent)
chain: QLDKNSEVYQEVQAMFDTLGIPKS
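Note: lentivirally expressed fusions sorted by FACS into six bins by GFP to DsRed ratio, PSI derived from sequencing read proportions per bin multiplied by bin number.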

In this series the parent is B1. Nature of the series: protein stability index of a GFP-peptide fusion (GPS, HEK-293T) (PSI 1-6); higher = more stable. The following applies: c terminus: a fixed tail appended.
With QLDKNSEVYQEVQAMFGTLGIPKS [D17G], the protein stability index came to 3.08. Then QLDKNSEVYQEVQAMFQTLGIPKS [D17Q], with 2.86; and QLDKNSEVYQEVQAMFSTLGIPKS [D17S], with 3.14; and QLDKNSEVYQEVQAMFFTLGIPKS [D17F], with 3.27. The figure for QLDKNSEVYQEVQAMFATLGIPKS [D17A] is 2.92; for QLDKNSEVYQEVQAMFCTLGIPKS [D17C] it is 2.64; for QLDKNSEVYQEVQAMFKTLGIPKS [D17K] it is 2.77. Consider QLDKNSEVYQEVQAMFPTLGIPKS [D17P], for which the protein stability index is 3.49. The figure for QLDKNSEVYQEVQAMFMTLGIPKS [D17M] is 2.5. Then QLDKNSEVYQEVQAMFLTLGIPKS [D17L], with 2.23; and QLDKNSEVYQEVQAMFNTLGIPKS [D17N], with 3.73; and QLDKNSEVYQEVQAMFTTLGIPKS [D17T], with 3.12. The figure for QLDKNSEVYQEVQAMFHTLGIPKS [D17H] is 2.43; for QLDKNSEVYQEVQAMFYTLGIPKS [D17Y] it is 2.02; for QLDKNSEVYQEVQAMFETLGIPKS [D17E] it is 3.42. QLDKNSEVYQEVQAMFRTLGIPKS [D17R]: the protein stability index is 2.71.

In the case of QLDKNSEVYQEVQAMFVTLGIPKS [D17V], the protein stability index came to 2.38. The figure for QLDKNSEVYQEVQAMFITLGIPKS [D17I] is 1.83. As to QLDKNSEVYQEVQAMFWTLGIPKS [D17W], the protein stability index was determined as 1.57. Take QLDKNSEWYQEVQAMFDTLGIPKS [V8W]: the protein stability index amounted to 2.88. With QLDKNSETYQEVQAMFDTLGIPKS [V8T], the protein stability index was 3.81. Take QLDKNSEYYQEVQAMFDTLGIPKS [V8Y]: the protein stability index stood at 2.96. The figure for QLDKNSESYQEVQAMFDTLGIPKS [V8S] is 3.35; for QLDKNSERYQEVQAMFDTLGIPKS [V8R] it is 3.36; for QLDKNSEVYFEVQAMFDTLGIPKS [Q10F] it is 2. The figure for QLDKNSEVYYEVQAMFDTLGIPKS [Q10Y] is 2.49. Then QLDKNSEVYTEVQAMFDTLGIPKS [Q10T], with 3.1; and QLDKNSEVYREVQAMFDTLGIPKS [Q10R], with 2.29; and QLDKNSEVYLEVQAMFDTLGIPKS [Q10L], with 2.18.

For the variant QLDKNSEVYMEVQAMFDTLGIPKS [Q10M], the protein stability index stood at 2.73. As to QLDKNSEVYWEVQAMFDTLGIPKS [Q10W], the protein stability index came out at 2.3. Then QLDKNSEVYNEVQAMFDTLGIPKS [Q10N], with 3.07; and QLDKNSEVYPEVQAMFDTLGIPKS [Q10P], with 2.73; and QLDKNSEVYDEVQAMFDTLGIPKS [Q10D], with 3.75. The figure for QLDKNSEVYKEVQAMFDTLGIPKS [Q10K] is 2.53; for QLDKNSEVYIEVQAMFDTLGIPKS [Q10I] it is 1.39; for QLDKNSEVYAEVQAMFDTLGIPKS [Q10A] it is 3.01. The figure for QLDKNSEVYEEVQAMFDTLGIPKS [Q10E] is 3.57. For the variant QLDKNSEVYSEVQAMFDTLGIPKS [Q10S], the protein stability index came out at 3.58. In the case of QLDKNSEVYVEVQAMFDTLGIPKS [Q10V], the protein stability index was 2.08. QLDKNSEVYGEVQAMFDTLGIPKS [Q10G]: the protein stability index stood at 3.01. As for QLDKNSEVYCEVQAMFDTLGIPKS [Q10C], the protein stability index was 2.63. With QLDKNSEVYHEVQAMFDTLGIPKS [Q10H], the protein stability index stood at 2.75. Take QLDKNSEVYQEKQAMFDTLGIPKS [V12K]: the protein stability index is 3.22. On to QLDKNSEVYQECQAMFDTLGIPKS [V12C], for which the protein stability index was determined as 3.36. Then QLDKNSEVYQEQQAMFDTLGIPKS [V12Q], with 3.56.

For the variant QLDKNSEVYQELQAMFDTLGIPKS [V12L], the protein stability index worked out at 3.1. In the case of QLDKNSEVYQEMQAMFDTLGIPKS [V12M], the protein stability index was determined as 3.29. The figure for QLDKNSEVYQERQAMFDTLGIPKS [V12R] is 2.8; for QLDKNSEVYQETQAMFDTLGIPKS [V12T] it is 3.52; for QLDKNSEVYQEDQAMFDTLGIPKS [V12D] it is 4.19. QLDKNSEVYQEEQAMFDTLGIPKS [V12E]: the protein stability index turned out to be 3.5. Take QLDKNSEVYQEHQAMFDTLGIPKS [V12H]: the protein stability index was determined as 3.42. The figure for QLDKNSEVYQEPQAMFDTLGIPKS [V12P] is 3.34. Then QLDKNSEVYQEYQAMFDTLGIPKS [V12Y], with 2.56. Then QLDKNSEVYQENQAMFDTLGIPKS [V12N], with 3.53; and QLDKNSEVYQEIQAMFDTLGIPKS [V12I], with 3.04; and QLDKNSEVYQESQAMFDTLGIPKS [V12S], with 2.77. As to QLDKNSEVYQEGQAMFDTLGIPKS [V12G], the protein stability index was 4. In the case of QLDKNSEVYQEAQAMFDTLGIPKS [V12A], the protein stability index worked out at 3.

Regarding QLDKNSEVYQEWQAMFDTLGIPKS [V12W], the protein stability index stood at 3.85. In the case of QLDKNSEVYQEFQAMFDTLGIPKS [V12F], the protein stability index was 3.48. Then QLDKNSEVYQEVQAVFDTLGIPKS [M15V], with 2.91; and QLDKNSEVYQEVQASFDTLGIPKS [M15S], with 3.22; and QLDKNSEVYQEVQAKFDTLGIPKS [M15K], with 3.32. For the variant QLDKNSEVYQEVQALFDTLGIPKS [M15L], the protein stability index turned out to be 2.94.

Regarding QLDKNSEVYQEVQAYFDTLGIPKS [M15Y], the protein stability index is 2.55. Turning to QLDKNSEVYQEVQAGFDTLGIPKS [M15G], the protein stability index was 3.69. The figure for QLDKNSEVYQEVQAPFDTLGIPKS [M15P] is 3.27. As to QLDKNSEVYQEVQAAFDTLGIPKS [M15A], the protein stability index stood at 2.88.

QLDKNSEVYQEVQADFDTLGIPKS [M15D]: the protein stability index turned out to be 3.68. Then QLDKNSEVYQEVQAHFDTLGIPKS [M15H], with 3.08; and QLDKNSEVYQEVQAFFDTLGIPKS [M15F], with 3.5; and QLDKNSEVYQEVQANFDTLGIPKS [M15N], with 3.1.

For the variant QLDKNSEVYQEVQAQFDTLGIPKS [M15Q], the protein stability index was found to be 3.56. QLDKNSEVYQEVQAWFDTLGIPKS [M15W]: the protein stability index was determined as 3.55. The figure for QLDKNSEVYQEVQACFDTLGIPKS [M15C] is 2.73; for QLDKNSEVYQEVQAEFDTLGIPKS [M15E] it is 4.28. For QLDKNSEVYQEVQATFDTLGIPKS [M15T], the protein stability index was 3.25.

On to QLDKNSEVYQEVQARFDTLGIPKS [M15R], for which the protein stability index is 3.34. Regarding QLDKNSEVYQEVQAIFDTLGIPKS [M15I], the protein stability index was found to be 3.24. Then QLDKNSEVYQEVQAMFDILGIPKS [T18I], with 2.79. In the case of QLDKNSEVYQEVQAMFDDLGIPKS [T18D], the protein stability index turned out to be 3.87.

For the variant QLDKNSEVYQEVQAMFDMLGIPKS [T18M], the protein stability index amounted to 2.78. Then QLDKNSEVYQEVQAMFDHLGIPKS [T18H], with 3.07; and QLDKNSEVYQEVQAMFDCLGIPKS [T18C], with 2.59; and QLDKNSEVYQEVQAMFDGLGIPKS [T18G], with 3.25.

As for QLDKNSEVYQEVQAMFDPLGIPKS [T18P], the protein stability index stood at 3.38. The figure for QLDKNSEVYQEVQAMFDFLGIPKS [T18F] is 3.52; for QLDKNSEVYQEVQAMFDKLGIPKS [T18K] it is 2.25. With QLDKNSEVYQEVQAMFDALGIPKS [T18A], the protein stability index was 3.34. The figure for QLDKNSEVYQEVQAMFDNLGIPKS [T18N] is 3.13; for QLDKNSEVYQEVQAMFDELGIPKS [T18E] it is 3.57; for QLDKNSEVYQEVQAMFDLLGIPKS [T18L] it is 2.97.
